Experimental data from paper PMC10511499, “Conserved roles for the dynein intermediate chain and Ndel1 in assembly and activation of dynein” (Nature Communications, 2023).
Positions count from the first letter of the chain named. Names and notes keep the numbering of the source.

B1: full-length yeast Pac1 with C-terminal FLAG-SNAPf (natural protein, S. cerevisiae, UniProt P39946 1-494, looked up)
chain: MTNWQQQLPLTDTQKNELDKSVLRYLNWNYKQTVRHEHAQDYESVRHAIVTLSGFLLQESVDRQEFISNNDTSNESMVDIDELLLPKKWNSIVRLQKKIIELEQNTETLVSQIKDLNTQVSELAQFKPTTSNGTSAHNVLKWIPRNLPSCLINVESSVTSVKLHPNLPIVFVATDHGKLYAFDLFNYTIPLASLQSHTKAITSMDVLFTNYTNSSKKNYLVIVTASKDLQIHVFKWVSEECKFQQIRSLLGHEHIVSAVKIWQKNNDVHIASCSRDQTVKIWDFHNGWSLKTFQPHSQWVRSIDVLGDYIISGSHDTTLRLTHWPSGNGLSVGTGHEFPIEKVKFIHFIEDSPEIRFRTPSTDRYKNWGMQYCVSASRDRTIKIWEIPLPTLMAHRAPIPNPTDSNFRCVLTLKGHLSWVRDISIRGQYLFSCADDKSVRCWDLNTGQCLHVWEKLHTGFVNCLDLDVDFDSNVTPRQMMVTGGLDCKSNVFMR
notes: Pac1, yeast homolog of LIS1, full length; also called WT Pac1; Pac1-SNAPf; source: S. cerevisiae, overexpressed from GAL1p; purified (IgG beads, TEV elution); not shown: 8xHis, N-terminal, cleaved; ZZ, N-terminal, cleaved; SNAPf, C-terminal, kept
B2: yeast Nip100 coiled-coil 1 (Nip100^CC1, residues 97-377) with N-terminal eGFP (domain or fragment, S. cerevisiae, UniProt P33420 97-377, looked up)
chain: EHSLLNGNAAQETIKNLQVKCESLASKLNKIKIENHELKTSVEKLSTNETVLLSKISRLDKLVKELKVENGNMKTHLDNFNHLLDASDSVMAPDLDKGTLLERSHLLQGLLDQTKLSYDKAMKVQEDLLEENTQLLEENAVLSKKISDLGLQLQQTNNTIGDLALQIEAQSKSSNIVDKLTNDNILLTSNIKALNNELEELQAKEKLDENLRITYEQLEQELRLQLSNLQSALENEKEIAGTYIEENSRLKATLESIEAKTSHKFQSLELKVNTLQEELYQ
notes: Nip100, yeast homolog of p150^Glued, coiled-coil 1, residues 97-377; also called GST-eGFP-Nip100^CC1; source: E. coli BL21-CodonPlus (DE3)-RIPL, purified (glutathione agarose, Ulp1 digest, SEC); not shown: GST, N-terminal, cleaved; SUMO, N-terminal, cleaved
B3: human Ndel1 coiled-coil domain (Ndel1^CC, residues 1-195) (domain or fragment, UniProt Q9GZM8 1-195, looked up)
chain: MDGEDIPDFSSLKEETAYWKELSLKYKQSFQEARDELVEFQEGSRELEAELEAQLVQAEQRNRDLQADNQRLKYEVEALKEKLEHQYAQSYKQVSVLEDDLSQTRAIKEQLHKYVRELEQANDDLERAKRATIVSLEDFEQRLNQAIERNAFLESELDEKESLLVSVQRLKDEARDLRQELAVRERQQEVTRKSA
notes: Ndel1, human, coiled-coil domain, residues 1-195; also called NudEL^CC; source: E. coli BL21-CodonPlus (DE3)-RIPL, purified (Strep-tactin XT, HiTrap Q, SEC)
B4: LIS1, wild type, as used in mass photometry (construct not told) (natural protein, human, UniProt P43034 1-410, looked up)
chain: MVLSQRQRDELNRAIADYLRSNGYEEAYSVFKKEAELDVNEELDKKYAGLLEKKWTSVIRLQKKVMELESKLNEAKEEFTSGGPLGQKRDPKEWIPRPPEKYALSGHRSPVTRVIFHPVFSVMVSASEDATIKVWDYETGDFERTLKGHTDSVQDISFDHSGKLLASCSADMTIKLWDFQGFECIRTMHGHDHNVSSVAIMPNGDHIVSASRDKTIKMWEVQTGYCVKTFTGHREWVRMVRPNQDGTLIASCSNDQTVRVWVVATKECKAELREHEHVVECISWAPESSYSSISEATGSETKKSGKPGPFLLSGSRDKTIKMWDVSTGMCLMTLVGHDNWVRGVLFHSGGKFILSCADDKTLRVWDYKNKRCMKTLNAHEHFVTSLDFHKTAPYVVTGSVDQTVKVWECR
notes: LIS1, human; also called WT LIS1; source: Sf9 cells, purified
B5: full-length yeast Ndl1 with C-terminal FLAG-SNAPf (natural protein, S. cerevisiae, UniProt Q06568 1-189, looked up)
chain: MVPNLDLETAIQIISSLETQLSELEGATKEYENDLEQVISKLKSDLLESQQQNKCNKKQITDLEIQVDELENENIQLRNKIETLQLESDRRLERNVLLEHELLDTKEALQKLRVSKEEATSGETRRNTRSLPSQNKKMKLFKDTIKVSTTSSTLYLQNMAKTNNAARSHCNIPNTQITQSTVIATTSSV
modifications: JFX554-SNAP or JFX650-SNAP ligand on the SNAPf tag
notes: Ndl1, yeast homolog of Ndel1, full length; also called Ndl1-SNAPf; source: S. cerevisiae, overexpressed from GAL1p; purified (IgG beads, TEV elution, SEC); not shown: SNAPf, C-terminal, kept; ZZ, C-terminal, cleaved; 8xHis, C-terminal, cleaved
B6: yeast Ndl1 coiled-coil domain (Ndl1^CC, residues 2-132) (domain or fragment, S. cerevisiae, UniProt Q06568 2-132, looked up)
chain: VPNLDLETAIQIISSLETQLSELEGATKEYENDLEQVISKLKSDLLESQQQNKCNKKQITDLEIQVDELENENIQLRNKIETLQLESDRRLERNVLLEHELLDTKEALQKLRVSKEEATSGETRRNTRSLP
notes: Ndl1, S. cerevisiae, coiled-coil domain, residues 2-132; No cleavage of the tags is described; also called StrepII-sfGFP-Ndl1^CC; source: E. coli BL21-CodonPlus (DE3)-RIPL, purified (Strep-tactin XT, SEC)
B7: yeast Ndl1^CC E64A R78A (domain or fragment, S. cerevisiae, UniProt Q06568 2-132, looked up)
chain: B6 chain with E63A, R77A
notes: Ndl1, S. cerevisiae, residues 2-132, E64 and R78 changed to alanines; also called interface 2 mutant of Ndl1^CC; source: E. coli BL21-CodonPlus (DE3)-RIPL, purified

What was measured:
[1] = target: B6; assay: mass photometry; yeast proteins; mixed 1:1 at 50-100 nM each, 1-2 min, measured at 10-20 nM; 50 mM Tris pH 8.0, 150 mM K-acetate; conditions: both partners purified
[2] = target: the molecule itself; assay: as above
[3] = target: T1, yeast dynein complex, wild type (Dyn1, Pac11, Dyn3, Dyn2) (S. cerevisiae, UniProt P36022 1-4092; P40960 1-533; Q04949 1-312; Q02647 1-92, JF503-, JFX549- or JFX646-HaloTag ligand on the HaloTag); assay: TIRF microscopy microtubule recruitment assay; yeast proteins; dynein on taxol-stabilised microtubules held by anti-tubulin antibody; fluorescent partner flowed in, TEV buffer with 1 mM DTT, 5-10 min; intensity along microtubules; conditions: both partners purified
T1 construct: dynein heavy chain Dyn1, S. cerevisiae; dynein intermediate chain Pac11, S. cerevisiae; dynein light-intermediate chain Dyn3, S. cerevisiae; dynein light chain Dyn2, S. cerevisiae; also called WT dynein; HaloTag-Dyn1 complex; source: S. cerevisiae, all genes overexpressed from GAL1p; purified (IgG sepharose, TEV elution); not shown: 8His (also printed 6xHis), N-terminal, cleaved; ZZ, N-terminal, …
T1 sequence (P36022 whole entry, chain 1 of 4): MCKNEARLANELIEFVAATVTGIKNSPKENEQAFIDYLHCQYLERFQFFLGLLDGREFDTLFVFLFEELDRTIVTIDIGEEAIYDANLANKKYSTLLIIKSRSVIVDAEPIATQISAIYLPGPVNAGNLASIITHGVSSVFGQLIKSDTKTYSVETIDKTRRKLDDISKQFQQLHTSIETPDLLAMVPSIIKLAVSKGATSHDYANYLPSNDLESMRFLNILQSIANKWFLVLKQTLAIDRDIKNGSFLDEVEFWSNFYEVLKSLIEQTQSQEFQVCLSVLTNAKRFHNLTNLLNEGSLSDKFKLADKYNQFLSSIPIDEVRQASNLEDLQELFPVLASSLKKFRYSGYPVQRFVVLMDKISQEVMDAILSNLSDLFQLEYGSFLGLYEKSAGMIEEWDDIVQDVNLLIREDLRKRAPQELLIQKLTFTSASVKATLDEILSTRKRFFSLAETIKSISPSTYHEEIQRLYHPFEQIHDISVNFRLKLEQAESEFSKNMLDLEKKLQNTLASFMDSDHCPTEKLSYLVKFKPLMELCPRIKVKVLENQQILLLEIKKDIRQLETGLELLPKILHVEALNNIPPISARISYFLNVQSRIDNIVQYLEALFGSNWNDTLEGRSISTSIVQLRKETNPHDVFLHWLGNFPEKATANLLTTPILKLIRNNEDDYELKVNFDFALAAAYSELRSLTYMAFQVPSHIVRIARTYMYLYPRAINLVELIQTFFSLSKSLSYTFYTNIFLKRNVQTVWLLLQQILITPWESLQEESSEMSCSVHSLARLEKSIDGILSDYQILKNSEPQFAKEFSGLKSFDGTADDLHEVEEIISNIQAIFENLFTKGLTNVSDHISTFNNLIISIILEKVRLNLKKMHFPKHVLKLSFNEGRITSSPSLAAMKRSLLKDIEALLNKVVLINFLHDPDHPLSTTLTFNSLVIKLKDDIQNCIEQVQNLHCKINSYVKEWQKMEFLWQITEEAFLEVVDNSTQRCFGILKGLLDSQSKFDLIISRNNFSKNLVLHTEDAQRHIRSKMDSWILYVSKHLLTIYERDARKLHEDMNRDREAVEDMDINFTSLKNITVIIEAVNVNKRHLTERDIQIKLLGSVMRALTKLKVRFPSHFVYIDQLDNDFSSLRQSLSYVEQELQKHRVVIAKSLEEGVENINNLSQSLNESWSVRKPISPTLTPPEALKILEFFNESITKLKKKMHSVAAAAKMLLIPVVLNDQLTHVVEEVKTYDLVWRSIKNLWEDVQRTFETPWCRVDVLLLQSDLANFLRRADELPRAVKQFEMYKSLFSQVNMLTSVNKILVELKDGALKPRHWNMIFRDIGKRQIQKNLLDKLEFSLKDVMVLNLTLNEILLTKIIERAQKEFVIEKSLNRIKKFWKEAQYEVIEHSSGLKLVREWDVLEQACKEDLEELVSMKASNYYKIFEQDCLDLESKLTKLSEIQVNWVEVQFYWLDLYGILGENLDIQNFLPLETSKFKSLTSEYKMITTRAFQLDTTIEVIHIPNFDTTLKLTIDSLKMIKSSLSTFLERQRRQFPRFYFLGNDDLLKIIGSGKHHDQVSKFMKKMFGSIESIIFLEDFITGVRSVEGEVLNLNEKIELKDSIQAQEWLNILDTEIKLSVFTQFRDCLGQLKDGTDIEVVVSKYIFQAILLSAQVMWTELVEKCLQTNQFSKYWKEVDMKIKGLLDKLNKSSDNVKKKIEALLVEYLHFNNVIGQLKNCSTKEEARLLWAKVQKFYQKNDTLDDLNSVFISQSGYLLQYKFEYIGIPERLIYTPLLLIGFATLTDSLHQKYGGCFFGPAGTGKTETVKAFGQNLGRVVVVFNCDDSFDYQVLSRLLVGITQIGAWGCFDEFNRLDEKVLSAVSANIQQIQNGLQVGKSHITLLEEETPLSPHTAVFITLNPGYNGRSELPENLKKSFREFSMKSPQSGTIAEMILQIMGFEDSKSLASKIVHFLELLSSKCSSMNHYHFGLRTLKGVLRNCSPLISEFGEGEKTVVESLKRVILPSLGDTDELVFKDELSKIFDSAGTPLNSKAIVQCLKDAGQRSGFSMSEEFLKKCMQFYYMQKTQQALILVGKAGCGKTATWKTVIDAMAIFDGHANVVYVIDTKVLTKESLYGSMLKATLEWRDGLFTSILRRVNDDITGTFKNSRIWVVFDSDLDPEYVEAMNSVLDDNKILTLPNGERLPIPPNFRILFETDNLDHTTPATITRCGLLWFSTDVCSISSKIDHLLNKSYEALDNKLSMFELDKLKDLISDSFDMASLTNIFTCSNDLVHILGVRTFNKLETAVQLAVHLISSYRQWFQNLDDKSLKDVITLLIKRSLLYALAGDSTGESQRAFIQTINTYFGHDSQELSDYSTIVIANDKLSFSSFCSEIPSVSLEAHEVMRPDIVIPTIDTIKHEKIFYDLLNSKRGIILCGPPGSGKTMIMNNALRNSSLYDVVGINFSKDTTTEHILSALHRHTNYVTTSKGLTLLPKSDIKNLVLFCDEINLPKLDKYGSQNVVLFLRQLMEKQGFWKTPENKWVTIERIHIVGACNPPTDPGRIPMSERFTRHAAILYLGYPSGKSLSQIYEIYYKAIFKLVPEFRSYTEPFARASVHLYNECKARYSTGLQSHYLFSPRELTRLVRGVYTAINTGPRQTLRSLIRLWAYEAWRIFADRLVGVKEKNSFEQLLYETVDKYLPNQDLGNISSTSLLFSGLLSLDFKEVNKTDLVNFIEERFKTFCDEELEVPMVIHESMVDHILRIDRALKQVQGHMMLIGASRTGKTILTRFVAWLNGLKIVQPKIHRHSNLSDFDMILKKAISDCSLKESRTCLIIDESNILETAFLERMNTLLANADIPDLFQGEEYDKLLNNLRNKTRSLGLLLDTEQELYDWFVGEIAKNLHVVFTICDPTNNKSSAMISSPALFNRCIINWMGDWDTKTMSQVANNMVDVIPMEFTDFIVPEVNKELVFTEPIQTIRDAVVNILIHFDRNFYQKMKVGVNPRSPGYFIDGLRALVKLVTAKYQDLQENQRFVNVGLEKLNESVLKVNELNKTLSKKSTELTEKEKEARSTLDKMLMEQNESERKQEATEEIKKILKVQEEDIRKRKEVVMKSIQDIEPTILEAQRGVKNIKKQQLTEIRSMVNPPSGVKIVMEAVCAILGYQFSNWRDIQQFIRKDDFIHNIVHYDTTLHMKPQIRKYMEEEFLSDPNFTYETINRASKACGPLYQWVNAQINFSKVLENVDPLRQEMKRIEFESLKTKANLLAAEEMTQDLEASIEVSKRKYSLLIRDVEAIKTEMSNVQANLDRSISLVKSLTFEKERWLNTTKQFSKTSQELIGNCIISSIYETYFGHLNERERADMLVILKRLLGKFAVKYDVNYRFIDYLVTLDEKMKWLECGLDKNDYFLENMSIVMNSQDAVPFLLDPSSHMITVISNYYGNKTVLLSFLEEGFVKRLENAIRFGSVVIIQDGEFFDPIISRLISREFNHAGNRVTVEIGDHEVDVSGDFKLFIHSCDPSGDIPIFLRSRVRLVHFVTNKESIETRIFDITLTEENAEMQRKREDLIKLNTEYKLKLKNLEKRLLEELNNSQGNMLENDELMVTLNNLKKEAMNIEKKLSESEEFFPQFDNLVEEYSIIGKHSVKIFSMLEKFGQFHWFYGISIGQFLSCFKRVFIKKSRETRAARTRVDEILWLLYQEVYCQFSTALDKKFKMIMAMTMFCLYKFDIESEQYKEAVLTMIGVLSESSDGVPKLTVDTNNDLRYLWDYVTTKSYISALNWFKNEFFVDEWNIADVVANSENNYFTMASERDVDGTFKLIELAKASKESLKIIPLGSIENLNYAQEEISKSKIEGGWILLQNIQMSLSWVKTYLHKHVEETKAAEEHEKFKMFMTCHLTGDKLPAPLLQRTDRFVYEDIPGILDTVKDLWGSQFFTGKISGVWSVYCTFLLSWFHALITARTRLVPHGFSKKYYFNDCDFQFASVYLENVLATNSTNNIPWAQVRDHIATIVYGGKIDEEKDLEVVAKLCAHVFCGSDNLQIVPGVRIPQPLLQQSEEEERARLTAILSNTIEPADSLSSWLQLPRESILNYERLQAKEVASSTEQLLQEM
T1 sequence (P40960 whole entry, chain 2 of 4): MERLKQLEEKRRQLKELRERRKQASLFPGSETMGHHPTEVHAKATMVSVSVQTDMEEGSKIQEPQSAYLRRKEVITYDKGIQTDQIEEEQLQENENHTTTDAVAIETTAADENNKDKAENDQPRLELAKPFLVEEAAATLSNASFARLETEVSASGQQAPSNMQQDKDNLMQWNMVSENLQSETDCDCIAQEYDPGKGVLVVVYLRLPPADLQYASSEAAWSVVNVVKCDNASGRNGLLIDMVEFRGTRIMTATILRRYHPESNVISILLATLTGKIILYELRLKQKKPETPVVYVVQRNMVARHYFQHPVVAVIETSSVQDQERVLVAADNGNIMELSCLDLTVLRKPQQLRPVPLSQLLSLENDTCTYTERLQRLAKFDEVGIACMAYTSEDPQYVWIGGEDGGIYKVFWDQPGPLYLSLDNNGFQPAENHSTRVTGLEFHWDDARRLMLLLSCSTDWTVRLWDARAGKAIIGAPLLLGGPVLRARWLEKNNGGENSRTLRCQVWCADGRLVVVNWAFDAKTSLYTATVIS
T1 sequence (Q04949 whole entry, chain 3 of 4): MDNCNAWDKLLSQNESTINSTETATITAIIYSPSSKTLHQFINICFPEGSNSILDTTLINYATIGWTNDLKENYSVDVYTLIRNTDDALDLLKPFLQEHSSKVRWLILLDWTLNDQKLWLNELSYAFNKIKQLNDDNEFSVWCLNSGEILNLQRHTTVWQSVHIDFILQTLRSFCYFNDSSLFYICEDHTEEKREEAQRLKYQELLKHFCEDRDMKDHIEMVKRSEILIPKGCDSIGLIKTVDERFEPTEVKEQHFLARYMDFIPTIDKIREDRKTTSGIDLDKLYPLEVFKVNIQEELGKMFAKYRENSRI
T1 sequence (Q02647 whole entry, chain 4 of 4): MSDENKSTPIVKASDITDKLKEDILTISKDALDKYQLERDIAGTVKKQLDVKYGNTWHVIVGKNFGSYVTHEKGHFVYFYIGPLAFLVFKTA

[4] = target: T2, yeast dynein^∆ICN complex (Pac11 lacking its N-terminal 43 residues) (S. cerevisiae, UniProt P36022 1-4092; P40960 44-533; Q04949 1-312; Q02647 1-92, JF503-, JFX549- or JFX646-HaloTag ligand on the HaloTag); assay: as above; conditions: both partners purified
T2 construct: dynein heavy chain Dyn1, S. cerevisiae; dynein intermediate chain Pac11, S. cerevisiae, N-terminal 43 residues deleted; dynein light-intermediate chain Dyn3, S. cerevisiae; dynein light chain Dyn2, S. cerevisiae; also called Pac11^∆ICN dynein; source: S. cerevisiae, all genes overexpressed from GAL1p; purified (IgG sepharose, TEV elution); not shown: 8His (also printed 6xHis), N-terminal, …

[5] = target: the molecule itself; assay: mass photometry; human proteins; preincubated at 0.5-1 µM for 5 min at room temperature, 1:1 molar ratio, measured at 5-20 nM; 90 mM HEPES-KOH pH 7.4, 50 mM K-acetate
[6] = target: B3; assay: as above; conditions: both partners purified

Q: Which results are given for B1?
A: stoichiometry N [1]: 1 Pac1 dimer per Ndl1 dimer; stoichiometry N [2]: 2; binding result [3]: binds; binding result [4]: binds

Q: Does B2 bind [3]?
A: Result: binds

Q: For B3, which “stoichiometry N” value [5] is on record?
A: The value was 2.

Q: With B4 as the binder, how does the “stoichiometry N” value [6] read?
A: The value was 1 LIS1 dimer per Ndel1 dimer.

Q: Does B5 bind [3]?
A: Result: binds

Q: Which results are given for B6?
A: stoichiometry N [2]: 2; binding result [3]: binds

Q: Does B7 bind [3]?
A: Result: binds
